Test results: patent publication EP1657250A1, “HLA-A *01-binding T-cell epitope of WT1” (Charité - Universitätsmedizin Berlin, priority 2004, dated 2006)
Entries after “also recorded” stand apart in the source; their conditions may differ.

Legend:
immunoproteasome = biological target: T1, immunoproteasome (Homo sapiens, UniProt P28062+P28065+P40306); experiment: In vitro proteasome digestion of the precursor peptide, immunoproteasome; type: biochemical; conditions: 6 h incubation; Edman sequencing and MALDI-TOF
T1 construct: Proteasomes were isolated from the EBV-transformed B-cell line; endogenous in cells; host or cells: LCL-721 (EBV-transformed B-cell line)
Description: (§1) Purification of 20S proteasomes, in vitro degradation of WT1.314-336 (SEQ ID NO: 6), and separation and analysis of cleavage products were performed as described (16). 10 nmol (27.6 µg) of WT1.314-336 were incubated for 6 h with 2 µg immunoproteasome or with 2 µg of constitutive proteasome, respectively, in digestion buffer (20 mM Tris-HCI; pH 7.6; 10 mM NaCl; 10 mM KCI; 2 mM MgCl2; 0.5 mM DTT) and the reaction stopped by freezing the reaction mixture at -80°C.
(§2) One crucial prerequisite for a peptide to be presented as a T-cell epitope is its proper excision from the protein. We analyzed in vitro digestion of the […] WT1-derived peptide 314-336 (SEQ ID NO: 6) encompassing the WT1.317-327 epitope […] (SEQ ID NO: 1) by constitutive as well as immunoproteasomes (Fig. 2). Proteasomes were isolated from the EBV-transformed B-cell line LCL-721.174 (constitutive proteasome) and the parental cell line LCL-721 (immunoproteasome, ref. 16) and were used for digestion with a 6-hour incubation period. A combination of Edman sequencing and MALDI-TOF mass spectrometry was subsequently performed to determine the identity and quantity of peptides generated after proteasome digestion. The amount of fragments detected is indicated.

constitutive proteasome = biological target: T2, constitutive proteasome (Homo sapiens, UniProt P28072+P28074+Q99436); experiment: In vitro proteasome digestion of the precursor peptide, constitutive proteasome; type: biochemical; conditions: 6 h incubation; Edman sequencing and MALDI-TOF
T2 construct: Proteasomes were isolated from the EBV-transformed B-cell line; endogenous in cells; host or cells: LCL-721.174 (EBV-transformed B-cell line)
Description: as §1, §2

With “WT1.314-336: WT1-derived precursor peptide 314-336 encompassing the WT1.317-327 epitope (ASETSEKRPFMCAYPGCNKRYFK)” the “generation of C-terminal residue Tyr-327 (fragments detected)” value (immunoproteasome) was “generated as the major fragment (314-327); also recorded: complementary fragment 328-336 represented the other major fragment”, the “processing of the N-terminus” value (immunoproteasome) was “No processing of the N-terminus was observed” and the “cleavage site C-terminal to Tyr-327 (fragments detected)” value (constitutive proteasome) was “fragment 328-336 was efficiently generated”. The “processing of the N-terminus Thr-317” value (constitutive proteasome) was “a fragment was found sharing the N-terminus Thr-317 (T)”.
